The target of the experiment is T1, human ERBB2 receptor (human, UniProt P04626 23-1255).
T1 construct: whole, on cells; Presented on human breast carcinoma cell lines with different ERBB2 levels; also called HER2; Neu-Erb
Briefly: flow cytometry on SK-BR-3 cells (FIG. 7 legend). The procedure: Humanized heavy SEQ NO.1 and light chains SEQ. NO.2 or SEQ. […] The cells were cultured in Erlenmeyer flask in incubator at 37° C., 5% CO₂ on a shaker at 120 rpm for at least 14 days. The surnatants were purified through standard protein A resins. […] NO.1 and SEQ.

B1: mAb W6/800 (antibody, V domains shown)
VH: QVQLQQSGAELMKPGASVKISCKATGYTFSNYWIEWVKQRPGHGLEWIGEILPGSGSTNYNEKLKGKATFTADTSSNTAYMQLSSLTSEDSGVYYCARGGGNYPYYFDYWGQGTTVTVSS
VL: IELMTQSHKFMSTSVGDRVSITCKASQDVGTAVAWYQQKPGQSPKLLIYWASTRHTGVPDRFTGSGSGTDFTLTISNVQSEDLADYFCQQYSSYRTFGAGTKLE
notes: Murine IgG2a purified from hybridoma cultures; they are assigned here by order and by likeness to the humanized VH and VL; also called murine W6/800; parental murine antibody
Turning to B1, the binding result is “binds”.

B2: humanized W6/800 antibody huW6/800 (antibody, V domains shown)
VH: QVQLVQSGAEVKKPGASVKISCKASGYTFSNYWIEWVRQAPGQGLEWMGEILPGSGSTNYNEKLKGRVTSTRDTSISTAYMELSRLRSDDTGVYYCARGGGNYPYYFDYWGQGTTVTVSS
VL: DIQMTQSPSTLSASVGDRVTITCKASQDVGTAVAWYQQKPGKAPKLLIYWASTRHTGVPSRFSGSGSGTEFTLTISSLQPDDFADYFCQQYSSYRTFGAGTKLEIK
notes: also called humanized antibody
In the case of B2, the binding result is on record as “binds”.
